Experimental data: paper PMC11833081, “Biochemical analyses of cystatin-C dimers and cathepsin-B reveals a trypsin-driven feedback mechanism in acute pancreatitis” (Nature Communications, 2025)
Each block holds one molecule with its values, some of them ahead of it.

How the values were obtained:
[1] = biological target: trypsin-cleaved (truncated) recombinant murine cystatin C (mouse) (UniProt P21460); assay: SEC; pH 4.0: 100 mM sodium acetate, 150 mM sodium chloride; 3 mg/mL protein kept at 4 °C overnight in the buffer; monomer to dimer ratio
[2] = biological target: trypsin-cleaved (truncated) recombinant murine cystatin C (mouse) (UniProt P21460); assay: SEC; pH 5.0 and 5.5 (100 mM sodium acetate, 150 mM NaCl) and pH 5.5, 6.0, 7.0, 8.0 (100 mM sodium phosphate, 150 mM NaCl); 3 mg/mL protein kept at 4 °C overnight in the buffer; monomer to dimer ratio
[3] = biological target: recombinant murine cathepsin B, wild type, auto-activated (mouse)
[4] = biological target: the molecule itself; assay: SEC; Superdex 75 Increase 10/300 GL; running buffer 100 mM sodium acetate, 5 mM calcium chloride, 100 mM NaCl, pH 5.5; separation of monomer and dimer fractions

percent present as dimer [1]: 100%
percent present as dimer [2]: 70%
Molecule: trypsin-cleaved (truncated) recombinant murine cystatin C (from UniProt P21460 29-140) (domain or fragment)

CTSB activity at pH 5.5 (Arg-Arg-AMC) with the CST3 dimer fraction [3]: 3 fold
B1: murine cystatin C dimer (dimer fraction isolated by size exclusion chromatography) (complex)
chain: ATPKQGPRMLGAPEEADANEEGVRRALDFAVSEYNKGSNDAYHSRAIQVVRARKQLVAGVNYFLDVEMGRTTCTKSQTNLTDCPFHDQPHLMRKALCSFQIYSVPWKGTHSLTKFSCKNA

B2: recombinant murine cystatin C (CST3), full-length (not trypsin-treated) (natural protein, mouse, UniProt P21460 21-140, looked up)
chain: ATPKQGPRMLGAPEEADANEEGVRRALDFAVSEYNKGSNDAYHSRAIQVVRARKQLVAGVNYFLDVEMGRTTCTKSQTNLTDCPFHDQPHLMRKALCSFQIYSVPWKGTHSLTKFSCKNA
notes: cystatin C, mouse, synthetic gene ordered without the signal peptide; The preparation is a mixture of monomer and dimer; the monomer fraction isolated by SEC is called mCST3; also called mCST3 (monomer fraction); CST3 monomers; source: E. coli SHuffle T7 Express, purified (Ni-IDA; monomer fraction by SEC); not shown: His-tag, N-terminal, kept; TEV protease cleavage site, N-terminal, kept
stoichiometry N [4]: 2
